This is an account of results in patent US20110318339A1 (FABRUS, published 2011).

As usually defined, the Kd is a measure of binding affinity in units of concentration. Usually koff stands for the rate constant with which the complex falls apart. The kon is the rate constant with which the complex forms.

Residue numbers refer to the chain shown, from its start. Names and notes keep the numbering of the source.

In experiment [1] the target is full-length human DLL4 expressed on the surface of CHO cells (human, UniProt Q9NR61 27-685). Kind of experiment: cell-based or functional assay.
The target of experiment [2] is T1, Recombinant Human DLL4 (Cat# 1506-D4/CF, R&D Systems) (human, UniProt Q9NR61 27-529).
T1 construct: Bought protein; also called rHuman DLL4; hDLL4
Kind of experiment: ELISA, DLL4 coated. (In an ELISA, binding on a coated surface is turned into a signal by an enzyme label.)

For experiment [3], the target named is T1, Recombinant Human DLL4 (Cat# …). Kind of experiment: SPR, DLL4 immobilised. As to the method: In this example, the binding affinities of selected anti-DLL4 Fabs to recombinant human DLL4 (hDLL4, Cat# 1506-D4/CF, R&D Systems) were analyzed using Surface Plasmon Resonance (SPR) (Biosensor Tools, Salt Lake City, Utah). The Fabs analyzed include germline-derived antibodies and germline-modified DLL4 antibodies. Recombinant hDLL4 was immobilized on a SPR chip using amine coupling at three different surface densities. The Fabs were serially diluted 3-fold, with an initial concentration of 1 μM. Binding studies were run on a ProteOn system using a GLM sensor chip in 10 mM HEPES, pH 7.4, 150 mM NaCl, 0.01% Tween-20, and 0.1 mg/ml BSA at 25° C. The response data from each surface was globally fit to determine the binding constants.
In general terms: In SPR one partner is held on a chip, and binding of the other changes the refractive index at the surface.

The target of experiment [4] is T2, DLL4 DSL (amino acid: 1-217) construct (human, UniProt Q9NR61 26-217).
T2 construct: also called DSL construct; not shown: myc tag (and his tag) added by the PCR primers
Description: Western blot, non-reducing. As to the method: (§1) Media from transfected CHO cells was collected after 7 days. To enrich for the DLL4 protein, 1 ml aliquots of each sample were batch bound with 50 μl of Talon Resin for 30 minutes. To confirm protein production media samples were tested with mouse anti-c-myc mAb (Genescript; Catalog # A00704). Samples were washed and then boiled with loading dye in the presence or absence of DTT. A gel was run on each of the 2 samples for each condition: with DTT and without DTT. […] For detection goat anti-mouse HRP, goat anti-kappa HRP, and goat anti-lambda HRP were used, respectively.
In general terms: A western blot detects proteins with antibodies after separation by electrophoresis.

For experiment [5], the target named is T3, DLL4 Egf1 (amino acid: 1-251) construct (human, UniProt Q9NR61 26-251).
T3 construct: also called EGF1 construct; not shown: myc tag (and his tag) added by the PCR primers
Description: Western blot, non-reducing. As to the method:
as §1

For experiment [6], the target named is T4, recombinant mouse DLL4 (Cat# 1389-D4-050/CF, R&D Systems) (mouse, UniProt Q9JI71 28-525).
T4 construct: also called mDLL4
Kind of experiment: ELISA, mDLL4 or hDLL4 coated.

Experiment [7] concerns the target T1, Recombinant Human DLL4 (Cat# …). Description: ELISA, hDLL4 coated, estimated from dose-dependent binding.
The target of experiment [8] is T5, recombinant human DLL4 (Cat# 1506-D4/CF, R&D Systems) (human, UniProt Q9NR61 27-529).
T5 construct: Bought protein; also called hDLL4; rHuman DLL4
Description: ELISA, DLL4 coated, Fab 20 nM. In short, it runs like this:
(§2)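 Plates were blocked with 1% BSA/TBST; serially diluted Fab was added in triplicate for 1 h at room temperature. Detection used anti-human kappa or lambda HRP secondary (1:1000, 30 min) and TMB developed for 2 min. The reaction was stopped with H₂SO₄ and absorbance read at 450 nm.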

Experiment [9] deals with T5, recombinant human DLL4 (Cat# …). Description: ELISA, DLL4 coated, Fab 0.74 nM. In short, it runs like this:
as §2

The target is the same in experiment [10]. Kind of experiment: ELISA, DLL4 coated, Fab 2.22 nM. In short, it runs like this: as §2
Experiment [11] has the same target. Description: ELISA, DLL4 coated, Fab 6.67 nM. In short, it runs like this: as §2
For experiment [12] the target is unchanged. Description: SPR (ProteOn), hDLL4 amine-coupled on chip. In short, it runs like this: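 SPR on a ProteOn GLM chip, with DLL4 amine-coupled at three surface densities. Fab analytes were run as 3-fold serial dilutions from 1 μM in 10 mM HEPES pH 7.4, 150 mM NaCl, 0.01% Tween-20, 0.1 mg/ml BSA at 25° C. Responses from each surface were globally fit for binding constants.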

The target in experiment [13] is T6, recombinant mouse DLL4 (Cat# 1389-D4-050/CF, R&D Systems) (mouse, UniProt Q9JI71 28-525).
T6 construct: Bought protein; also called mDLL4
Kind of experiment: SPR, mDLL4 on chip, row 'Surface 1' (first).

Experiment [14] has as its target T6, recombinant mouse DLL4 (Cat# …). Description: SPR, mDLL4 on chip, row 'Surface 1' (third).
Experiment [15] has the same target. Kind of experiment: SPR, mDLL4 on chip, row 'Surface 1' (second).
For experiment [16] the target is unchanged. Kind of experiment: SPR, mDLL4 on chip, average of three surfaces.
The target of experiment [17] is T1, Recombinant Human DLL4 (Cat# …). Description: ECL competition, DLL4 coated; competitor 100 nM Ru-labeled Fab H:APF & L:wt. How it is done: Briefly, single spot 96-well standard plates (MSD) were coated overnight with 5 μl per well of 10 μg/ml DLL4 (R&D systems) in PBS with 0.03% Triton X-100. Some wells were left uncoated as blank. The next day, an 150 μl aliquot of 3% BSA in TBST was added to each well and allowed to incubate for 60 min at 20° C. to block the plate. […] After incubating the plate at 20° C. with shaking for 1 hour, the ECL signal was measured using a Sector Imager 2400.

In experiment [18] the target is T7, full-length human DLL4 expressed on the surface of CHO cells (human, UniProt Q9NR61 26-685).
T7 construct: also called CHO-DLL4; DLL4-expressing CHO cells
Description: flow cytometry, 250 nM biotinylated Notch-Fc on CHO-DLL4 cells, no Fab (0 nM control). How it is done:
Streptavidin-PE was used as a detection molecule.
Fab was 5-fold serially diluted in 2% BSA/PBS from a starting concentration of 50 nM. […] PE-labeled streptavidin (Cat# 21627, Pierce-Thermo Scientific) was then added to a final dilution of 1:5 followed by incubation for 10 minutes at room temperature. The cells were then washed twice in 2% BSA/PBS and analyzed by flow cytometry on a BD FACSAria.

B1: IgG H:APFF VLTH & L:NDH LS (antibody, V domains shown)
VH: QVQLVQSGAEVKKPGASVKVSCKASGYTFTSYYMHWVRQAPGQGLEWMGIGLPTGHSTSYAQKFQGRVTMTRDTSTSTVYMELSSLRSEDTAVYYCAREEYAPFSAEYFQFWGQGTLVTVSS
VL: EIVLTQSPATLSLSPGERATLSCRASQNVDHYLAWYQQKPGQAPRLLIYDALNRSTGIPARFSGSGSGTDFTLTISSLEPEDFAVYYCQQRSNWPPWTFGQGTKVEIKR
On to B1, for which, in experiment [1], the “IC50, Notch-activation (luciferase reporter), T98G cells with CHO-DLL4” value is ~6 nM and the “fold efficiency against Fab H:APFF VLTH & L:NDH LS, Notch-activation (luciferase reporter)” value was determined as 30 fold.

B2: Fab VH1-46_IGHD6-6*01_IGHJ1*01 H:APFF VLTH & L6_IGKJ1*01 L:NDH LS (Fab, V domains shown)
VH: B1 VH with G51V
VL: B1 VL
notes: all other places give 370; also called Fab H:APFF VLTH & L:NDH LS; anti-DLL4 Fab H:APFF VLTH & L:NDH LS
B2: the “fold increased binding affinity against the antibody mutants with heavy chain H:APFF ALTH” value in experiment [2] is ~10 fold. In experiment [3], the “fold greater affinity for hDLL4 than for mouse DLL4” value amounted to 5 fold. For the same molecule, the binding result in [4] and in experiment [5] was “no binding (tested: 20 nM Fab)” throughout. The “fold decrease in affinity for mDLL4 against hDLL4” value in [6] was found to be 10 fold. The equilibrium dissociation constant (Kd) in experiment [7] was ~1 nM.

B3: Fab VH1-46_IGHD6-6*01_IGHJ1*01 S102A/S103P/S104F/H111F I51V/N52L/S54T/G56H & L6_IGKJ1*01 S28N/S30D/S31H S52L/A55S (Fab, V domains shown)
VH: B1 VH with G51V
VL: B1 VL
notes: Fab made in E. coli: VH on CH1 with His6 and Flag tags (Plasmid A), VL on kappa CL (Plasmid C); also called H: APFF VLTH & L: NDH LS
Consider B3, for which the “ELISA absorbance at 450 nm” value in [8] came out at 0.91 A450; in [9] it was 0.263 A450; in [10] it was 0.523 A450; in experiment [11], 0.747 A450. Also, the equilibrium dissociation constant (Kd) in experiment [12] was 1.7 nM; in experiment [13], 7.3 nM; in experiment [14] it was 10.9 nM; in experiment [15] it was 10.8 nM; in experiment [16], 9.7 nM. Also, the dissociation rate constant (koff) was found to be 0.00109 s⁻¹ in experiment [12]; 0.0021 s⁻¹ in experiment [13]; 0.00188 s⁻¹ in [14]; 0.00178 s⁻¹ in [15]; 0.00192 s⁻¹ in [16]. The on-rate (kon) in experiment [12] amounted to 684000 M⁻¹ s⁻¹; in experiment [13], 287000 M⁻¹ s⁻¹; in [14], 173000 M⁻¹ s⁻¹; in experiment [15], 165000 M⁻¹ s⁻¹; in experiment [16], 208000 M⁻¹ s⁻¹.

B4: Fab VH1-46_IGHD6-6*01_IGHJ1*01 H:APFF G56H & L6_IGKJ1*01 (Fab, V domains shown)
VH: B1 VH with G51I, L52N, T54S
VL: not shown
notes: Fab, kappa light chain; also called H:APFF G56H & L:wt
Regarding B4, in experiment [17], the Kd was ~30 nM.

B5: biotinylated Notch-Fc (rHuman Notch-1/Fc Chimera, cat# 3647-TK-050, R&D Systems) (Fc fusion)
chain: ARGPRCSQPGETCLNGGKCEAANGTEACVCGGAFVGPRCQDPNPCLSTPCKNAGTCHVVDRRGVADYACSCALGFSGPLCLTPLDNACLTNPCRNGGTCDLLTLTEYKCRCPPGWSGKSCQQADPCASNPCANGGQCLPFEASYICHCPPSFHGPTCRQDVNECGQKPGLCRHGGTCHNEVGSYRCVCRATHTGPNCERPYVPCSPSPCQNGGTCRPTGDVTHECACLPGFTGQNCEENIDDCPGNNCKNGGACVDGVNTYNCRCPPEWTGQYCTEDVDECQLMPNACQNGGTCHNTHGGYNCVCVNGWTGEDCSENIDDCASAACFHGATCHDRVASFYCECPHGRTGLLCHLNDACISNPCNEGSNCDTNPVNGKAICTCPSGYTGPACSQDVDECSLGANPCEHAGKCINTLGSFECQCLQGYTGPRCEIDVNECVSNPCQNDATCLDQIGEFQCICMPGYEGVHCEVNTDECASSPCLHNGRCLDKINEFQCECPTGFTGHLCQ
modifications: biotinylated with EZ-Link NHS-Biotin Reagent (sites not given)
notes: Bought Notch-1/Fc chimera; Fc part of the bought chimera not given
Turning to B5, the “signal of Notch-Fc bound to CHO-DLL4 (streptavidin-PE)” value in [18] came to 531.
